One block for each substance: values may come before it.
How the values were obtained:
Test in all cases: GST pull-down (autoradiography, quantified)
[1] = target: radiolabeled myc-Sequoia-WT; conditions: percentage binding relative to 10% of the input; 3 independent experiments; parent: est. 25; read off a plot
GST-Atg8a K47Q = GST-Atg8a K47Q (UniProt Q9W2S2); conditions: percentage binding relative to 10% of the input; 3 independent experiments; parent: est. 25; read off a plot
GST-Atg8a-WT = GST-Atg8a-WT (UniProt Q9W2S2); conditions: parent: est. 25, read off a plot
Chain of GST-Atg8a-WT (Q9W2S2 entry or part of it): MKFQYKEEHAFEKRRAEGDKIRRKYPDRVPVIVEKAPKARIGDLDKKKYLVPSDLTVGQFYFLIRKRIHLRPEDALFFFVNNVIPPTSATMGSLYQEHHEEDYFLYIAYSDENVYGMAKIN

GST-Atg8a K48Q = GST-Atg8a K48Q (UniProt Q9W2S2); conditions: percentage binding relative to 10% of the input; 3 independent experiments; parent: est. 25; read off a plot
Chain of GST-Atg8a K48Q (Q9W2S2 entry or part of it K48Q | K48Q): as the sequence (Q9W2S2 entry or part of it) above, with K48Q counted along it

GST-Atg8a K46Q Y49A = conditions: percentage binding relative to 10% of the input; 3 independent experiments; parent: est. 25; read off a plot
[2] = target: GST-Atg8a-LDS mutant (Y49A) (UniProt Q9W2S2); conditions: parent: est. 25, read off a plot
Chain of GST-Atg8a-LDS mutant (Y49A) (Q9W2S2 entry or part of it Y49A | Y49A): as the sequence (Q9W2S2 entry or part of it) above, with Y49A counted along it

[3] = target: radiolabeled GFP-Sequoia-WT; conditions: parent: est. 25; read off a plot
GST-Atg8a K46Q = GST-Atg8a K46Q (UniProt Q9W2S2); conditions: percentage binding relative to 10% of the input; 3 independent experiments; parent: est. 25; read off a plot
Chain of GST-Atg8a K46Q (Q9W2S2 entry or part of it K46Q | K46Q): as the sequence (Q9W2S2 entry or part of it) above, with K46Q counted along it

[4] = percentage binding relative to 10% of the input, 3 independent experiments

Chain of GST-Atg8a K47Q (Q9W2S2 entry or part of it K47Q | K47Q): as the sequence (Q9W2S2 entry or part of it) above, with K47Q counted along it

Substance: GST-Atg8a-WT (from UniProt Q9W2S2) K47Q
response [1]: 24 % Binding

Substance: GST-Atg8a-WT (from UniProt Q9W2S2) K48Q
response [1]: 12 % Binding

Substance: radiolabeled GFP-Sequoia-WT Y313A; I316A
response (GST-Atg8a-WT): 14 % of binding

Substance: m11; m1 Sequoia:Y313A; Sequoia:I316A; Atg8a:K48Q
response (GST-Atg8a K48Q): 8 % Binding

Substance: m11; m1 Sequoia:Y313A; Sequoia:I316A; Atg8a:Y49A
response [2, 4]: 2.9 % Binding

Substance: radiolabeled myc-Sequoia-WT Y313A; I316A
response (GST-Atg8a-WT; [4]): 14 % Binding

Substance: GST-Atg8a-WT (from UniProt Q9W2S2) Y49A
response [1]: 2.7 % Binding
response [3]: 8 % of binding

Substance: m11; m1 Sequoia:Y313A; Sequoia:I316A; Atg8a:K46Q
response (GST-Atg8a K46Q): 18 % Binding

Substance: GST-Atg8a-WT (from UniProt Q9W2S2) K46Q
response [1]: 25 % Binding

Results, then the substance that gave them:

response (GST-Atg8a K47Q): 12 % Binding
Substance: m11; m1 Sequoia:Y313A; Sequoia:I316A; Atg8a:K47Q

response [1]: 3.6 % Binding
Substance: GST-Atg8a-WT (from UniProt Q9W2S2) K46Q; Y49A

response (GST-Atg8a K46Q Y49A): 3.2 % Binding
Substance: m11; m1 Sequoia:Y313A; Sequoia:I316A; Atg8a:K46Q; Atg8a:Y49A

response [2]: 5.6 % of binding
Substance: m9; m1 Sequoia:Y313A; Sequoia:I316A; Atg8a:Y49A

From publication PMC7262597
